Assay results reported in patent US20130245238A1 (Bristol-Myers Squibb, published 2013).

B1: non-binding control ^10Fn3 molecule (SEQ ID NO: 6 with an additional MG at the N-terminus and RGD changed to RGE) (designed binder)
chain: MGVSDVPRDLEVVAATPTSLLISWDAPAVTVRYYRITYGETGGNSPVQEFTVPGSKSTATISGLKPGVDYTITVYAVTGRGESPASSKPISINYRT
B2: Adnectin-8 (designed binder)
chain: MGVSDVPRDLEVVAATPTSLLISWSQPGRYVKYYRITYGETGGNSPVQEFTVPNDTYTATISGLKPGVDYTITVYAVYGKYGPYYGYDPISINYRTEIDKPSQHHHHHH
B3: Adnectin-4 (designed binder)
chain: MASTSGVSDVPRDLEVVAATPTSLLISWDAPAVTVHSYYITYQELQHHSVPQGFQVPGSKSTATISGLKPGVAYQIAVYAFTGPGLPPSDAPPIVIYYRTEGSGSHHHHHH
B4: Adnectin-5 (designed binder)
chain: MGVSDVPRDLEVVAATPTSLLISWKYPYETISYYRITYGETGGNSPVQEFTVPYYRSTATISGLKPGVDYTITVYAVEASAPYSDGGSPISINYRTEIDKPSQHHHHHH
B5: Adnectin-1 (designed binder)
chain: MASTSGSTHYYKGTADLEVVAATPTSLLISWPPPYYVEGVTVFRITYGETGGNSPVQEFTVPYWTETATISGLKPGVDYTITVYAEMYPGSPWAGQVMDIQPISINYRTEGSGSHHHHHH
notes: Isolated from an NP1 library; purified by Ni-agarose
B6: Adnectin-2 (designed binder)
chain: MASTSGVSDVPRDLEVVAATPTSLLISWDAPAVTVNNYRITYQPLLQGSSIQHFDVPGSKSTATISGLKPGVGYQITVYASTYTHSKAYYSLPISIYYRTEGSGSHHHHHH
B7: Adnectin-3 (designed binder)
chain: MASTSGVSDVPRDLEVVAATPTSLLISWDAPAVPVSKYVIYYWPGALISSMQAFKVPGSKSTATISGLKPGVLYSIVVDALTGDGQGSYVWDPITITYRTEGSGSHHHHHH
B8: Adnectin-6 (designed binder)
chain: MGVSDVPRDLEVVAATPTSLLISWSRPKGSIKYYRITYGETGGNSPVQEFTVPNSQYTATISGLKPGVDYTITVYAVYGYPYQEPHYYPISINYRTEIDKPSQHHHHHH
B9: Adnectin-7 (designed binder)
chain: MGVSDVPRDLEVVTATPTSLLISWDGPKYYVKYYRITYGETGGNSPVQEFTVPRTDHTATISGLKPGVDYTITVYAVKGQYGPYYGSRPISINYRTEIDKPSQHHHHHH
B10: WS-LI1 binder having the sequence of SEQ ID NO: 47 (designed binder)
chain: MGVSDVPRDLEVVAATPTSLLISWDAPAVTVRYYRITYGEFSQFVHSDGEYYQEYQEFTVPGSKSTATISGLKPGVDYTITVYAVTGQYDQDDEPSSKPISINYRTEIDKPSQ
notes: Modified ^10Fn3 domain (CD and FG loops)
B11: WS-LI1 binder having the sequence of SEQ ID NO: 46 (designed binder)
chain: MGVSDVPRDLEVVAATPTSLLISWDAPAVTVRYYRITYGEYSSFFQHQGQYYHYIQEFTVPGSKSTATISGLKPGVDYTITVYAVTQHEHSQDSSKPISINYRTEIDKPSQ
notes: as for B10
B12: WS-LI1 binder having the sequence of SEQ ID NO: 45 (designed binder)
chain: MGVSDVPRDLEVVAATPTSLLISWDAPAVTVRYYRITYGEYHAFFASNGKYYFYIQEFTVPGSKSTATISGLKPGVDYTITVYAVTDDTVHHGDSNYHSSKPISINYRTEIDKPSQ
notes: as for B10
B13: WS-LI1 binder having the sequence of SEQ ID NO: 5 (designed binder)
chain: MGVSDVPRDLEVVAATPTSLLISWDAPAVTVRYYRITYGEYHEHYHSPGFSQKYHYEQEFTVPGSKSTATISGLKPGVDYTITVYAVTGHKHYHYYYYYHHHSSKPISINYRTEIDKPSQ
notes: as for B10
B14: WS-LI1 binder having the sequence of SEQ ID NO: 4 (designed binder)
chain: MGVSDVPRDLEVVAATPTSLLISWDAPAVTVRYYRITYGEHVADHFDHNQEFTVPGSKSTATISGLKPGVDYTITVYAVTYQFQDPEEHYYYHFYDSSSKPISINYRTEIDKPSQ
notes: as for B10
B15: WS-LI1 binder having the sequence of SEQ ID NO: 3 (designed binder)
chain: MGVSDVPRDLEVVAATPTSLLISWDAPAVTVRYYRITYGEQHSKYPHQEFTVPGSKSTATISGLKPGVDYTITVYAVTIQPQDPEQDYQYHYYETSSKPISINYRTEIDKPSQ
notes: as for B10
B16: scaffold region peptide of SEQ ID NO: 54 (peptide)
peptide: PHFPTRYYRITYGETGGNS
notes: Synthetic peptide from an engineered ^10Fn3 domain; also called modified scaffold region segment C-terminal to the BC loop
B17: BC loop peptide (SEQ ID NO: 58) (peptide)
peptide: PTSLLISWDAPAVTVRYYRITYG
notes: Synthetic peptide; also called BC loop region cluster
B18: scaffold region peptide of SEQ ID NO: 53 (peptide)
peptide: MGEVVAATPTSLLIS
notes: Synthetic peptide; also called wildtype scaffold region segment N-terminal to the BC loop

These binders were tested against T1, Recombinant human integrin αVβ3 (R&D Systems) (human, UniProt P06756 31-992; P05106 27-718) (assay: SPR (Biacore), integrin amine-coupled to a CM7 chip, binding RU at the end of the injection).
T1 construct: Amine-coupled on a CM7 chip; also called integrin AlphaV-Beta3

| Binder | binding result |
| --- | --- |
| B1 | no binding (tested: 5 µM) |

The binders below were run against T2, human PXR-GST (Invitrogen) (human, UniProt O75469 111-434, limits assumed) (assay: SPR, Biacore T100; human PXR-GST captured on anti-GST antibody chip;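 further: binding rate constants and Kd derived from kinetic cycles using the Biacore T100 analysis software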).
T2 construct: Captured on an anti-GST antibody chip; the whole natural protein is named; also called GST-PXR; GST-tagged PXR; not shown: GST tag
T2 sequence (looked up): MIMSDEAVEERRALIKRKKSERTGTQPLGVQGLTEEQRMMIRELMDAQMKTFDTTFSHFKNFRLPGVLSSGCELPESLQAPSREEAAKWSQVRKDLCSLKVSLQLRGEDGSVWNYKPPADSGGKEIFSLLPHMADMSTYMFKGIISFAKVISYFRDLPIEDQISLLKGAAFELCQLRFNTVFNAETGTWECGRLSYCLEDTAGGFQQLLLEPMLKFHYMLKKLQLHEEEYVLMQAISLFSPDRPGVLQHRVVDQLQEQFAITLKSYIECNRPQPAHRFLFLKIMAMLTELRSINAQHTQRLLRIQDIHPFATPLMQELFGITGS

| Binder | Kd [nM] | koff [s⁻¹] | kon [M⁻¹ s⁻¹] |
| --- | --- | --- | --- |
| B2 | 4.4 | 0.000182 | 41700 |
| B3 | 7.8 | 0.000168 | 21500 |
| B4 | 5.4 | 0.0027 | 509000 |
| B5 | 11.4 | 0.00119 | 104000 |
| B6 | 97.8 | 0.00458 | ~46800 |
| B7 | 2.5 | 0.000378 | 162000 |
| B8 | 1.9 | 0.00126 | 680000 |
| B9 | 0.31 | 8.82e-05 | 288000 |

Each binder was assayed against T3, biotinylated murine IL-17 (murine, UniProt Q62386 26-158, limits assumed, biotinylated (site not stated)) (assay: competitive Alphascreen; 1 µM binder, biotinylated murine IL-17 against murine IL-17RA-Fc).
T3 construct: Used at 2.5 nM in the Alphascreen assay; also called interleukin 17
T3 sequence (looked up): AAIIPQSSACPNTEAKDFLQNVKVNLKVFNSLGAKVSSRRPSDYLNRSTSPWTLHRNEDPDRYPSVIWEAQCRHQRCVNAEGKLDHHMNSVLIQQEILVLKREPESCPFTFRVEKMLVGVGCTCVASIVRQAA

| Binder | % inhibition of the Alphascreen signal [%] |
| --- | --- |
| B10 | 81 |
| B11 | 94 |
| B12 | 83 |

These binders were tested against T4, murine DLL4 (murine, UniProt Q9JI71 28-525, limits assumed) (assay: competitive Biacore; 2 µM binder equilibrated with 20 nM murine DLL4, flowed over immobilised Notch1-Fc).
T4 construct: Soluble protein used at 20 nM; construct and source are not described; also called delta-like protein 4

| Binder | % competition of the interaction between Notch1 and murine DLL4 [%] |
| --- | --- |
| B13 | 75 |
| B14 | 100 |
| B15 | 100 |

What follows are binders tested against HLA allele molecule DRB*1501 (human) (assay: HLA class II competition binding assay: inhibition of the europium-labeled control peptide, time-resolved fluorescence).

| Binder | IC50 [nM] |
| --- | --- |
| B16 | 50000 |
| B17 | < 1000 |
| B18 | < 100 |

What follows are binders tested against HLA allele molecule DRB*0101 (human) in the same assay as above.

| Binder | IC50 [nM] |
| --- | --- |
| B18 | 6000 |
